Patent JP2021155343A (dated 2021)

Biological target: T1, ヒトeIF5Aタンパクの(44−72番目)のアミノ酸残基から成るペプチド (human, UniProt P63241 44-72)
T1 construct: range 44-72; The peptide was coupled to KLH for immunisation; also called human eIF5A (44-72) peptide
Test: ELISA screening of hybridoma monoclonal antibodies

T1 sequence (P63241 44-72 limits assumed): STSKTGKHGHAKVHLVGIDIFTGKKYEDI

binding result: binds
B1: 抗ORAIP抗体(クローン YSP5−45−36) (antibody, V domains shown)
VH: EVKLVESGGGLVQPGGSLRLSCATSGFTFTDYYMSWARQPPGKALEWLGFIRNKANGYTTEYSASVKGRFTISRDNSLGILYLQMNTLRPEDSATYYCARNYYGTSFSWFAYWGQGTLVTVSA
VL: MTQTPLSLSVSLGDQASISCRSSQSIVHFNGNTYLEWYLQKPGQSPKLLIYKVSSRFSGVPDRFSGSGSGTDFTLKISRVEAEDLGVYYCFQGSHVPPTFGGGTKLEIK
notes: Mouse monoclonal antibody from a hybridoma (mouse spleen cells fused with mouse myeloma cells); also called モノクローナル抗体(クローン YSP5−45−36); clone YSP5-45-36
